Where two headings read alike, the source gives them in different places.
T1: mouse IL-17A (mouse, UniProt Q62386 26-158, limits assumed)
T1 construct: Purified recombinant protein in SPR; also called MuIL-17A; murine IL-17A
T1 sequence (looked up): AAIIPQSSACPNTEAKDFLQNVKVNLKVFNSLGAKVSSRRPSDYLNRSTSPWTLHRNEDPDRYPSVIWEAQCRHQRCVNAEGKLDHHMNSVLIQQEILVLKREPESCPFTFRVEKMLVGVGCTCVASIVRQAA

T2: rat IL-17A (rat, UniProt Q61453 18-150, limits assumed)
T2 construct: Purified recombinant protein in SPR
T2 sequence (looked up): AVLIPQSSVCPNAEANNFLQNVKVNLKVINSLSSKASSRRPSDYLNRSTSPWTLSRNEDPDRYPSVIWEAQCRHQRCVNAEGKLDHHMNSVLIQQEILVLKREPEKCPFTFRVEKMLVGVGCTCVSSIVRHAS


Tests used:
human IL-17A [1] = biological target: T3, human IL-17A (human, UniProt Q16552 24-155); experiment: cell-based or functional assay
T3 sequence (Q16552 24-155 limits assumed): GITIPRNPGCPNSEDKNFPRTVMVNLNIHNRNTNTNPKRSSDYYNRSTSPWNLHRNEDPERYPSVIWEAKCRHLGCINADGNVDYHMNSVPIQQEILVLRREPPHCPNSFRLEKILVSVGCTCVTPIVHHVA

human IL-17A/F [2] = biological target: human IL-17A/F (human, UniProt Q16552 24-155; Q96PD4 31-163); experiment: cell-based or functional assay
Target sequence in this assay (Q16552 24-155 limits assumed, chain 1 of 2): as the sequence (Q16552 24-155 limits assumed) above
Target sequence in this assay (Q96PD4 31-163 limits assumed, chain 2 of 2): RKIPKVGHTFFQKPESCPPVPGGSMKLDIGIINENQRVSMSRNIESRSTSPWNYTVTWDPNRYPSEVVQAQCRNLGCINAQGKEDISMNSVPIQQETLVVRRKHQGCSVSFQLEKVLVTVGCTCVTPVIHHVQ

[3] = biological target: cynomolgous monkey (cyno) IL-17A (cynomolgus monkey, UniProt A0A2K5TTB0 24-155); experiment: cell-based or functional assay
Chain of cynomolgous monkey (cyno) IL-17A (A0A2K5TTB0 entry or part of it): as the sequence (Q16552 24-155 limits assumed) above, with T3A, P8S, N34S, I77V, N78K, P104R counted along it

human IL-17A [4] = biological target: T3, human IL-17A; experiment: ELISA, captured antibody, serially diluted biotin-IL-17 (Example 1.5.1)
human IL-17A [5] = biological target: T4, human IL-17A (human, UniProt Q16552 24-155); experiment: hIL17A ELISA
T4 construct: Recombinant; biotinylated in the ELISA; also called hIL-17; hIL17A
T4 sequence (Q16552 24-155): as the sequence (Q16552 24-155 limits assumed) above
Protocol: The following protocol is used to characterize the binding of IL-17 antibodies to human IL-17 by enzyme-linked immunosorbent assay (ELISA). […] Coat ELISA plate with 50 μl per well of Goat anti Mouse IgG-Fc at 2 ug/ml, overnight at 4° C. […] Wash plate 3×PBS/Tween. […] Add 50 μl Mab diluted to 1 μg/ml in PBS/0.1% BSA to appropriate wells. Incubate 1 hr at room temperature (RT). […] Wash plate 3× with PBS/Tween. […] Add 50 μl of serial diluted biotin-IL17 (human IL-17, IL-17A/F, cyno IL-17) to appropriate wells. Incubate 1 hr at room temperature (RT). […] Wash plate 3× with PBS/Tween. […] Incubate 1 hr at RT. […] Wash plate 3× with PBS/Tween. […] Stop reaction with 50 μl 2N H₂SO₄. […] Read absorbance at 450 nm.

cynomolgus monkey IL-17A [6] = biological target: T5, cynomolgus monkey IL-17A (cynomolgus monkey, UniProt A0A2K5TTB0 24-155); experiment: cell-based or functional assay
T5 sequence (A0A2K5TTB0 entry or part of it): as the sequence (Q16552 24-155 limits assumed) above, with T3A, P8S, N34S, I77V, N78K, P104R counted along it

human IL-17A [7] = biological target: T4, human IL-17A; experiment: cell-based or functional assay; remark: listed apart in the source
mouse IL-17A = biological target: T1, mouse IL-17A; experiment: SPR (Biacore 3000), antibody captured by anti-Fc, antigen in solution;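 note: purified recombinant IL-17 antigens flowed over captured antibodies in HBS-EP buffer, global Langmuir one-to-one fit of association and dissociation phases, KD derived from koff over kon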
Protocol: (§1) The binding of antibodies to purified recombinant human, cyno, rat, mouse, rabbit IL-17 and human IL-17A/F were determined by surface plasmon resonance-based measurements with a Biacore® 3000 instrument (Biacore® AB, Uppsala, Sweden) using running HBS-EP (10 mM HEPES [pH 7.4], 150 mM NaCl, 3 mM EDTA, and 0.005% surfactant P20) at 25° C. […] Approximately 5000 RU of goat anti-mouse or anti-human IgG (Fcγ) fragment specific polyclonal antibody (Pierce Biotechnology Inc, Rockford, Ill.) diluted in 10 mM sodium acetate (pH 4.5) was directly immobilized across a CM5 research grade biosensor chip using a standard amine coupling kit according to manufacturer's instructions and procedures at 25 μg/ml. Unreacted moieties on the biosensor surface were blocked with ethanolamine. Modified carboxymethyl dextran surface in flowcell 2 and 4 was used as a reaction surface. Unmodified carboxymethyl dextran without goat anti-mouse or anti-human IgG in flow cell 1 and 3 was used as the reference surface. For kinetic analysis, rate equations derived from the 1:1 Langmuir binding model were fitted simultaneously to association and dissociation phases of all eight injections (using global fit analysis) with the use of Biaevaluation 4.0.1 software. Purified antibodies were diluted in HEPES-buffered saline for capture across goat anti-mouse or anti-human IgG specific reaction surfaces. Antibodies to be captured as a ligand (25 μg/ml) were injected over reaction matrices at a flow rate of 5 μl/min. The association and dissociation rate constants, kon (unit M-1s-1) and koff (unit s-1) were determined under a continuous flow rate of 25 μl/min. Rate constants were derived by making kinetic binding measurements at ten different antigen concentrations ranging from 10 nM to 200 nM. The equilibrium dissociation constant (unit M) of the reaction between antibodies and recombinant purified IL-17 antigens was then calculated from the kinetic rate constants by the following formula: KD=koff/kon. Binding was recorded as a function of time and kinetic rate constants are calculated. In this assay, on-rates as fast as 10⁶ M⁻¹ s⁻¹ and off-rates as slow as 10⁻⁶ s⁻¹ can be measured.

human IL-17A/F [8] = biological target: T6, human IL-17A/F (human, UniProt Q16552 24-155; Q96PD4 31-163); experiment: as above
T6 construct: Recombinant; biotinylated in the ELISA; also called hIL-17A/F; HuIL-17A/F
T6 sequence (Q16552 24-155, chain 1 of 2): as the sequence (Q16552 24-155 limits assumed) above
T6 sequence (Q96PD4 31-163, chain 2 of 2): as the sequence (Q96PD4 31-163 limits assumed, chain 2 of 2) above
Protocol: as §1

cynomolgus monkey IL-17A [9] = biological target: T5, cynomolgus monkey IL-17A; experiment: as above
Protocol: as §1

human IL-17A [10] = biological target: T4, human IL-17A; experiment: as above
Protocol: as §1

rat IL-17A = biological target: T2, rat IL-17A; experiment: as above
Protocol: as §1

Binder	Potency (pM), IL-17-driven IL-6 production in HS27 cells (human IL-17A [1])	Potency (pM), IL-17-driven IL-6 production in HS27 cells (human IL-17A/F [2])	Potency (pM), IL-17-driven IL-6 production in HS27 cells [3]	EC50 (human IL-17A [4])	EC50 (human IL-17A [5])	Potency (pM), IL-17-driven IL-6 production in HS27 cells (cynomolgus monkey IL-17A [6])	Potency (pM), IL-17-driven IL-6 production in HS27 cells (human IL-17A [7])	other results
B6-44 (antibody, V domains shown) VH: EVQLVQSGAEVKKPGSSVKVSCKASGGSFLSYGFSWVRQAPGQGLEWMGGITPFFGLADYAQKFQGRVTITADESTTTAYMELSGLTSDDTAVYYCARESSEFWNGYYCTQDFDLWGQGTTVTVSS VL: EIVLTQSPDFQSVTPKEKVTITCRASQDIGSDLHWYQQKPDQSPKLLIKYASNSISGVPSRFSGSGSGTDFTLTINGLEAEDAGTYYCHQTAYLPQTFGPGTKVDIK	120 pM	288 pM	65 pM					
IL17-B6-29 (antibody, V domains shown) VH: EVQLVQSGAEVKKPGSSVKVSCKASGGSFISYGYNWVRQAPGQGLEWMGGITPFFGTADYAQKFQGRVTITADESTTTAYMELSGLTSDDTAVYYCAREPNDFWNGYYTTHHFDYWGQGTTVTVSS VL: DVVMTQSPDFQSVTPKEKVTITCRASQNIGSALHWYQQKPDQSPKLLIKYASQSISGVPSRFSGSGSGTDFTLTINGLEAEDAGTYYCHQSTSLPHTFGQGTKLDIKR	134 pM			0.09 nM				
IL17-h5C5.19 (antibody, V domains shown, IgG; constant regions not specified) VH: QVQLQQSGAELVRPGASVKLSCKALGYTFTDYEFHWVKQTPVHGLEWIGVIHPGNGGTAYNQNFRDKATLTADKSSSTAYMELSSLTSEDSGVYYCTRFLTYEGYFDYWGQGTALTVSS VL: NIVMTQSPATLSVSPGERATLSCKASQSVSIDVGWFQQKPGQSPRLLIYHASNRYTGVPARFSGSGSGTDFTLTISSLQPEDFAVYFCQQDYSSPYTFGQGTKLEIKR					0.03 nM	9 pM	11 pM	
IL17-G9-1 (antibody, V domains shown) VH: EVQLLESGGGVVQPGRSLRLSCAASGFIFSNYGMHWVRQAPGKGLEWVAVISYDGSNKYYADSVKGRFTISRDNSKNTLYLEMNSLRPEDTAVYYCAKVGASGDYYYSYGLDVWGQGTTVTVSS VL: QSVLTQPPSASGTPGQTVSISCSGSHSNIGRHPVDWYQQVPGAAPKLLMYYGGYRPSGVPDRFSGSQSGTSASLAISGLQSEDEADYYCATWDDRLVGYVFGSGTKVTVLG	27 pM	99 pM	604 pM	0.13 nM				
IL17-G9-M1 (antibody, V domains shown) VH: EVQLLESGGGVVQPGRSLRLSCAASGFIFSNYGMHWVRQAPGKGLEWVAVISYDGGYKYYADSVKGRFTISRDNSKNTLYLEMNSLRPEDTAVYYCAKLSLSGDYYYSYGFDGWGQGTTVTVSS VL: QSVLTQPPSASGTPGQTVSISCSGSKSNIGSHYVHWYQQVPGAAPKLLMYDFGQRPSGVPDRFSGSQSGTSASLAISGLQSEDEADYYCGTWDDWLGGYVFGTGTKVTVLG	88 pM			0.08 nM				
IL17-G9-6 (antibody, V domains shown) VH: EVQLLESGGGVVQPGRSLRLSCAASGFIFSDYGMHWVRQAPGKGLEWVAVISYDGSNKYYADSVKGRFTISRDNSKNTLYLEMNSLRPEDTAVYYCAKVGASGDYYYSYGLDVWGQGTTVTVSS VL: QSVLTQPPSASGTPGQTVSISCSGRQSNIGNHYVDWYQQVPGAAPKLLIYGDVIRPSGVPDRFSGSQSGTSASLAISGLQSEDEADYYCATWDDWLAGYVFGSGTKVTVLG	884 pM			0.12 nM				
IL17-G9-2 (antibody, V domains shown) VH: EVQLLESGGGVVQPGRSLRLSCAASGFIFRNYGMHWVRQAPGKGLEWVAVISYDGSNKYYADSVKGRFTISRDNSKNTLYLEMNSLRPEDTAVYYCAKVGASGDYYYSYGLDVWGQGTTVTVSS VL: QSVLTQPPSASGTPGQTVSISCSGSNSNIGRHPVDWYQQVPGAAPKLLIYYDDQRPSGVPDRFSGSQSGTSASLAISGLQSEDEADYYCATWDDSLGGYVFGSGTKVTVLG	24 pM	147 pM	157 pM	0.18 nM				
IL17-G9-M2 (antibody, V domains shown) VH: EVQLLESGGGVVQPGRSLRLSCAASGFIFSNYGMHWVRQAPGKGLEWVAVISYDGSNKYYADSVKGRFTISRDNSKNTLYLEMNSLRPEDTAVYYCAKVGASGDYYYSYGLDVWGQGTTVTVSS VL: QSVLTQPPSASGTPGQTVSISCSGHNSNIGYHYVHWYQQVPGAAPKLLIYGDGWRPSGVPDRFSGSQSGTSASLAISGLQSEDEADYYCGTWDDWLGGYVFGTGTKVTVLG	38 pM	44 pM	105 pM	0.08 nM				
IL17-G9-4 (antibody, V domains shown, no own VH entry is printed) VH: EVQLLESGGGVVQPGRSLRLSCAASGFIFSNYGMHWVRQAPGKGLEWVAVISYDGSNKYYADSVKGRFTISRDNSKNTLYLEMNSLRPEDTAVYYCAKVGASGDYYYSYGLDVWGQGTTVTVSS VL: QSVLTQPPSASGTPGQTVSISCSGRQSNIGRHYVDWYQQVPGAAPKLLMYYDSIRPSGVPDRFSGSQSGTSASLAISGLQSEDEADYYCATWDDSLGGYVFGSGTKVTVLG	38 pM	119 pM	247 pM	0.06 nM				
IL17-h5C5.2 (antibody, V domains shown, IgG; constant regions not specified) VH: EVQLVQSGAEVKKPGASVKVSCKASGYTFTDYEFHWVRQAPGQGLEWMGVIHPGNGGTAYNQNFRDRVTITADKSTSTAYMELSSLRSEDTAVYYCARFLTYEGYFDYWGQGTLVTVSS VL: NIVMTQTPKFLLVSPGDRVTITCKASQSVSIDVGWFQQKPGQSPKLLIYHASNRYTGVPDRFTGSGYGTDFTFTVNTVQAEDLAVYFCQQDYSSPYTFGGGTKLELKR					1.2 nM	11 pM	6 pM	
IL17-h5C5.15 (antibody, V domains shown, IgG; constant regions not specified; also called h5C5.15 (VH.1b-Vk.3a)) VH: EVQLVQSGAEVKKPGASVKVSCKASGYTFTDYEFHWVRQAPGQGLEWIGVIHPGNGGTAYNQNFRDRATLTADKSTSTAYMELSSLRSEDTAVYYCTRFLTYEGYFDYWGQGTLVTVSS VL: EIVMTQSPATLSVSPGERATLSCKASQSVSIDVGWFQQKPGQSPRLLIYHASNRYTGVPARFSGSGSGTDFTLTISSLQPEDFAVYFCQQDYSSPYTFGQGTKLEIKR					0.02 nM	12 pM	13 pM	Kd (mouse IL-17A): 2.83 nM; koff (mouse IL-17A): 0.000557 s⁻¹; kon (mouse IL-17A): 197000 M⁻¹ s⁻¹; Kd (human IL-17A/F [8]): 1.43 nM; koff (human IL-17A/F [8]): 0.00112 s⁻¹; kon (human IL-17A/F [8]): 781000 M⁻¹ s⁻¹; Kd (cynomolgus monkey IL-17A [9]): 0.358 nM; koff (cynomolgus monkey IL-17A [9]): 0.000216 s⁻¹; kon (cynomolgus monkey IL-17A [9]): 603000 M⁻¹ s⁻¹; Kd (human IL-17A [10]): 0.458 nM; koff (human IL-17A [10]): 0.000437 s⁻¹; kon (human IL-17A [10]): 954000 M⁻¹ s⁻¹; Kd (rat IL-17A): 5.8 nM; koff (rat IL-17A): 0.0036 s⁻¹; kon (rat IL-17A): 621000 M⁻¹ s⁻¹
IL17-h5C5.20 (antibody, V domains shown, IgG; constant regions not specified) VH: EVQLVQSGAEVKKPGASVKVSCKASGYTFTDYEFHWVRQAPGQGLEWMGVIHPGNGGTAYNQNFRDRVTITADKSTSTAYMELSSLRSEDTAVYYCARFLTYEGYFDYWGQGTLVTVSS VL: NIVMTQSPATLSVSPGERATLSCKASQSVSIDVGWFQQKPGQSPRLLIYHASNRYTGVPARFSGSGSGTDFTLTISSLQPEDFAVYFCQQDYSSPYTFGQGTKLEIKR					0.03 nM	13 pM	12 pM	
IL17-h5C5.11 (antibody, V domains shown, IgG; constant regions not specified) VH: EVQLVQSGAEVKKPGASVKVSCKASGYTFTDYEFHWVRQAPGQGLEWMGVIHPGNGGTAYNQNFRDRVTITADKSTSTAYMELSSLRSEDTAVYYCARFLTYEGYFDYWGQGTLVTVSS VL: EIVMTQSPATLSVSPGERATLSCKASQSVSIDVGWYQQKPGQAPRLLIYHASNRYTGIPARFSGSGSGTDFTLTISSLQPEDFAVYYCQQDYSSPYTFGQGTKLEIKR					0.03 nM	90 pM	115 pM	

Reference: patent US20140348834A1 (published 2014)
